Data taken from US20050282743A1, “Molecular interactions in cells” (Arbor Vita Corporation, priority 2001, published 2005).
Values belong to the substance of their own block, whether it stands above or below them.

Experiments:
[1] = molecular target: T1, GST-KIAA0300 PDZ domain 1 (UniProt O15018); assay: G' assay; also: key of the grades not given here
T1 sequence (looked up): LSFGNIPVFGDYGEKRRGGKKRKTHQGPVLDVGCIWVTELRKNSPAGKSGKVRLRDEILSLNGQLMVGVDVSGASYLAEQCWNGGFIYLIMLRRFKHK

[2] = molecular target: GST-DLG-1 PDZ domains 1 to 3 (Example 6) (Homo sapiens) (UniProt Q12959); assay: G assay competition vs 20 uM biotin-CLASP-2 20-mer; competitor 100 uM
[3] = molecular target: GST-DLG-1 PDZ domains 1 to 3 (Example 6) (Homo sapiens) (UniProt Q12959); assay: G assay competition vs 20 uM biotin-CD46 20-mer; competitor 100 uM
[4] = molecular target: GST-DLG-1 PDZ domains 1 to 3 (Example 6) (Homo sapiens) (UniProt Q12959); assay: G assay competition vs 10 uM biotin-CD95 20-mer; competitor 100 uM
[5] = molecular target: GST-DLG-1 PDZ domains 1 to 3 (Example 6) (Homo sapiens) (UniProt Q12959); assay: G assay competition vs 10 uM biotin-KV1.3 20-mer; competitor 100 uM
[6] = molecular target: GST-DLG-1 PDZ domains 1 to 3 (Example 6) (Homo sapiens) (UniProt Q12959); assay: G assay competition vs 20 uM biotin-CD46 20-mer; competitor 1000 uM
[7] = molecular target: GST-PSD95 PDZ domains 1, 2, 3 (Homo sapiens) (UniProt P78352); assay: as above
Sequence of GST-PSD95 PDZ domains 1, 2, 3 (Homo sapiens) (P78352 62-395): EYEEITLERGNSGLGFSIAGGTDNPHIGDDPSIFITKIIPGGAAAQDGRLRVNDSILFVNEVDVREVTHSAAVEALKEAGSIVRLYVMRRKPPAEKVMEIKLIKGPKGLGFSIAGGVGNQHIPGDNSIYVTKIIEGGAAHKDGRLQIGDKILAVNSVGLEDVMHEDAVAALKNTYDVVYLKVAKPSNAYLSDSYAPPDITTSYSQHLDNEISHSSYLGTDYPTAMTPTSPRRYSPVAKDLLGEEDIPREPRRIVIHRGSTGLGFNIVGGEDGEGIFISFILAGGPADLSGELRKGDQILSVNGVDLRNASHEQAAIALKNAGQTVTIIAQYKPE

[8] = molecular target: GST-DLG-1 PDZ domains 1 to 3 (Example 6) (Homo sapiens) (UniProt Q12959); assay: G assay competition vs 20 uM biotin-CLASP-2 20-mer; competitor 1000 uM
[9] = molecular target: GST-PSD95 PDZ domains 1, 2, 3 (Homo sapiens) (UniProt P78352); assay: as above
[10] = molecular target: GST-DLG-1 PDZ domains 1 to 3 (Example 6) (Homo sapiens) (UniProt Q12959); assay: G assay competition vs 10 uM biotin-CD95 20-mer; competitor 1000 uM
[11] = molecular target: GST-PSD95 PDZ domains 1, 2, 3 (Homo sapiens) (UniProt P78352); assay: as above
[12] = molecular target: GST-DLG-1 PDZ domains 1 to 3 (Example 6) (Homo sapiens) (UniProt Q12959); assay: G assay competition vs 20 uM biotin-CD46 20-mer; competitor 500 uM
[13] = molecular target: GST-PSD95 PDZ domains 1, 2, 3 (Homo sapiens) (UniProt P78352); assay: as above
[14] = molecular target: GST-PSD95 PDZ domains 1, 2, 3 (Homo sapiens) (UniProt P78352); assay: G assay competition vs 10 uM biotin-KV1.3 20-mer; competitor 500 uM
[15] = molecular target: GST-DLG-1 PDZ domains 1 to 3 (Example 6) (Homo sapiens) (UniProt Q12959); assay: G assay competition vs 10 uM biotin-CD95 20-mer; competitor 500 uM
[16] = molecular target: GST-PSD95 PDZ domains 1, 2, 3 (Homo sapiens) (UniProt P78352); assay: as above
[17] = molecular target: GST-DLG-1 PDZ domains 1 to 3 (Example 6) (Homo sapiens) (UniProt Q12959); assay: G assay competition vs 20 uM biotin-CLASP-2 20-mer; competitor 500 uM
[18] = molecular target: GST-PSD95 PDZ domains 1, 2, 3 (Homo sapiens) (UniProt P78352); assay: as above
[19] = molecular target: GST-PSD95 PDZ domains 1, 2, 3 (Homo sapiens) (UniProt P78352); assay: G assay competition vs 10 uM biotin-KV1.3 20-mer; competitor 1000 uM
[20] = molecular target: GST-TIP1 PDZ domain 1 (Table 9 insert) (Homo sapiens (Human)) (UniProt O14907); assay: G' assay; also: key of the grades not given here
Sequence of GST-TIP1 PDZ domain 1 (Table 9 insert) (Homo sapiens (Human)) (O14907 14-116): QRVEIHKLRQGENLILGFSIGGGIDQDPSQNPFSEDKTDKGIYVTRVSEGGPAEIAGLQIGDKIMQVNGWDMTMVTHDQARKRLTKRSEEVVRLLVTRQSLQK

[21] = molecular target: GST-BAI-1 Associated Protein PDZ domain 2 (Mus musculus (Mouse)) (UniProt Q6RHR9); assay: G' assay; also: key of the grades not given here
Sequence of GST-BAI-1 Associated Protein PDZ domain 2 (Mus musculus (Mouse)) (Q6RHR9 455-558): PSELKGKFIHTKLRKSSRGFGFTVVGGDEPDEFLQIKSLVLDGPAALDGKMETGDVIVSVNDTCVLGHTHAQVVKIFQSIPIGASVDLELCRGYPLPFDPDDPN

[22] = molecular target: GST-p55T PDZ domain 1 (Homo sapiens (Human)) (UniProt Q9NZW5); assay: G' assay; also: key of the grades not given here
[23] = molecular target: T2, GST-KIAA0300 PDZ domain 2 (UniProt O15018); assay: G' assay; also: key of the grades not given here
T2 sequence (looked up): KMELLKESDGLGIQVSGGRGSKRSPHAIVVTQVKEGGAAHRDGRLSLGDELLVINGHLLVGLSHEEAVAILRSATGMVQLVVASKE

[24] = molecular target: GST-DLG-1 PDZ domains 1 to 3 (Example 6) (Homo sapiens) (UniProt Q12959); assay: G assay competition vs 20 uM biotin-CLASP-2 20-mer; competitor 50 uM
[25] = molecular target: GST-DLG-1 PDZ domains 1 to 3 (Example 6) (Homo sapiens) (UniProt Q12959); assay: G assay competition vs 20 uM biotin-CD46 20-mer; competitor 50 uM
[26] = molecular target: GST-DLG-1 PDZ domains 1 to 3 (Example 6) (Homo sapiens) (UniProt Q12959); assay: G assay competition vs 10 uM biotin-CD95 20-mer; competitor 50 uM
[27] = molecular target: GST-DLG-1 PDZ domains 1 to 3 (Example 6) (Homo sapiens) (UniProt Q12959); assay: G assay competition vs 10 uM biotin-KV1.3 20-mer; competitor 50 uM

Substance: AdenoE4 typ9 (peptide)
- Classification [1]: 1 A450 class

Substance: CLASP-2 3-mer (peptide)
- % binding of labelled 20-mer [6]: 45%
- % binding of labelled 20-mer [7]: 59%
- % binding of labelled 20-mer [8]: 59%
- % binding of labelled 20-mer [9]: 63%
- % binding of labelled 20-mer [10]: 46%
- % binding of labelled 20-mer [11]: 55%
- % binding of labelled 20-mer [12]: 72%
- % binding of labelled 20-mer [13]: 75%
- % binding of labelled 20-mer [14]: 81%
- % binding of labelled 20-mer [15]: 51%
- % binding of labelled 20-mer [16]: 55%
- % binding of labelled 20-mer [17]: 61%
- % binding of labelled 20-mer [18]: 82%
- % binding of labelled 20-mer [19]: 50%

Substance: CSPG4 (chondroitin sulfae proteoglycan 4, melanoma-associated) (peptide)
- Classification [1]: 2 A450 class

Substance: HPV E6 #18 (peptide)
- Classification [20]: 4 A450 class
- Classification [21]: 5 A450 class

Substance: ephrin B2 (peptide)
- Classification [1]: 2 A450 class

Substance: presenilin-2 (peptide)
- Classification [23]: 1 A450 class
- Classification [1]: 1 A450 class

Substance: unlabeled 8 amino acid peptide corresponding to the C-terminus of CD95
- % binding of labelled 20-mer [24]: 73%
- % binding of labelled 20-mer [25]: 110%
- % binding of labelled 20-mer [26]: 70%
- % binding of labelled 20-mer [27]: 84%

The remaining lines, values ahead:

- % binding of labelled 20-mer [2]: 90%
- % binding of labelled 20-mer [3]: 90%
- % binding of labelled 20-mer [4]: 68%
- % binding of labelled 20-mer [5]: 63%
Substance: CD46 8-mer (peptide)

- Classification [1]: 4 A450 class
Substance: MINT-1 (peptide)

- Classification [1]: 3 A450 class
- Classification [22]: 1 A450 class
Substance: MINT-2 (peptide)

- Classification [22]: 1 A450 class
Substance: presenilin-1 (peptide)
